B1: Pistol ribozyme (parent)
chain: GGGUCGUUGUUCCAUAAUCGCGUGGAUAUGGCACGCAAGUUUCUACCGGGCACCGUAAAUGUCCGACUGGAGCCGUUCGGGCGGCUAUAAACAGACCUCAGGCCCGAAGCGUGGCGGCACCUGCCGCCGGUGGUAAAAAAGAUCGGAAGAGCACACGUCU

Variants of: B1
Assay: aptazyme ON/OFF ratio, guanine; higher = stronger switching; co-transcriptional cleavage with and without guanine

Row | Variant | aptazyme ON/OFF ratio
1 | GGGUCGCGCUAACAUAAUCGCGUGGAUAUGGCACGCAAGUUUCUACCGGGCACCGUAAAUGUCCGACUGGAGCCGUUCGGGCGGCUAUAAACAGACCUCAGGCCCGAAGCGUGGCGGCACCUGCCGCCGGUGGUAAAAAAGAUCGGAAGAGCACACGUCU [U7C U8G G9C U11A C12A] | 1.22
2 | GGGUCGCGCUAGCAUAAUCGCGUGGAUAUGGCACGCAAGUUUCUACCGGGCACCGUAAAUGUCCGACUGGAGCCGUUCGGGCGGCUAUAAACAGACCUCAGGCCCGAAGCGUGGCGGCACCUGCCGCCGGUGGUAAAAAAGAUCGGAAGAGCACACGUCU [U7C U8G G9C U11A C12G] | 1.16
3 | GGGUCGCGCUAUCAUAAUCGCGUGGAUAUGGCACGCAAGUUUCUACCGGGCACCGUAAAUGUCCGACUGGAGCCGUUCGGGCGGCUAUAAACAGACCUCAGGCCCGAAGCGUGGCGGCACCUGCCGCCGGUGGUAAAAAAGAUCGGAAGAGCACACGUCU [U7C U8G G9C U11A C12U] | 1.28
4 | GGGUCGCGCGCGAAUAAUCGCGUGGAUAUGGCACGCAAGUUUCUACCGGGCACCGUAAAUGUCCGACUGGAGCCGUUCGGGCGGCUAUAAACAGACCUCAGGCCCGAAGCGUGGCGGCACCUGCCGCCGGUGGUAAAAAAGAUCGGAAGAGCACACGUCU [U7C U8G G9C U10G U11C C12G C13A] | 1.31
5 | GGGUCGCGCGCGUAUAAUCGCGUGGAUAUGGCACGCAAGUUUCUACCGGGCACCGUAAAUGUCCGACUGGAGCCGUUCGGGCGGCUAUAAACAGACCUCAGGCCCGAAGCGUGGCGGCACCUGCCGCCGGUGGUAAAAAAGAUCGGAAGAGCACACGUCU [U7C U8G G9C U10G U11C C12G C13U] | 1.24
6 | GGGUCGCGCGCGGAUAAUCGCGUGGAUAUGGCACGCAAGUUUCUACCGGGCACCGUAAAUGUCCGACUGGAGCCGUUCGGGCGGCUAUAAACAGACCUCAGGCCCGAAGCGUGGCGGCACCUGCCGCCGGUGGUAAAAAAGAUCGGAAGAGCACACGUCU [U7C U8G G9C U10G U11C C12G C13G] | 1.22
7 | GGGUCGCGCUAAUAUAAUCGCGUGGAUAUGGCACGCAAGUUUCUACCGGGCACCGUAAAUGUCCGACUGGAGCCGUUCGGGCGGCUAUAAACAGACCUCAGGCCCGAAGCGUGGCGGCACCUGCCGCCGGUGGUAAAAAAGAUCGGAAGAGCACACGUCU [U7C U8G G9C U11A C12A C13U] | 1.22
8 | GGGUCGCGCUAAAAUAAUCGCGUGGAUAUGGCACGCAAGUUUCUACCGGGCACCGUAAAUGUCCGACUGGAGCCGUUCGGGCGGCUAUAAACAGACCUCAGGCCCGAAGCGUGGCGGCACCUGCCGCCGGUGGUAAAAAAGAUCGGAAGAGCACACGUCU [U7C U8G G9C U11A C12A C13A] | 1.15
9 | GGGUCGCGCUAAGAUAAUCGCGUGGAUAUGGCACGCAAGUUUCUACCGGGCACCGUAAAUGUCCGACUGGAGCCGUUCGGGCGGCUAUAAACAGACCUCAGGCCCGAAGCGUGGCGGCACCUGCCGCCGGUGGUAAAAAAGAUCGGAAGAGCACACGUCU [U7C U8G G9C U11A C12A C13G] | 1.11
10 | GGGUCGCGCGGAAAUAAUCGCGUGGAUAUGGCACGCAAGUUUCUACCGGGCACCGUAAAUGUCCGACUGGAGCCGUUCGGGCGGCUAUAAACAGACCUCAGGCCCGAAGCGUGGCGGCACCUGCCGCCGGUGGUAAAAAAGAUCGGAAGAGCACACGUCU [U7C U8G G9C U10G U11G C12A C13A] | 1.15
11 | GGGUCGCGCGGAGAUAAUCGCGUGGAUAUGGCACGCAAGUUUCUACCGGGCACCGUAAAUGUCCGACUGGAGCCGUUCGGGCGGCUAUAAACAGACCUCAGGCCCGAAGCGUGGCGGCACCUGCCGCCGGUGGUAAAAAAGAUCGGAAGAGCACACGUCU [U7C U8G G9C U10G U11G C12A C13G] | 1.11
12 | GGGUCGCGCGGAUAUAAUCGCGUGGAUAUGGCACGCAAGUUUCUACCGGGCACCGUAAAUGUCCGACUGGAGCCGUUCGGGCGGCUAUAAACAGACCUCAGGCCCGAAGCGUGGCGGCACCUGCCGCCGGUGGUAAAAAAGAUCGGAAGAGCACACGUCU [U7C U8G G9C U10G U11G C12A C13U] | 1.14
13 | GGGUCGCGCGGUGAUAAUCGCGUGGAUAUGGCACGCAAGUUUCUACCGGGCACCGUAAAUGUCCGACUGGAGCCGUUCGGGCGGCUAUAAACAGACCUCAGGCCCGAAGCGUGGCGGCACCUGCCGCCGGUGGUAAAAAAGAUCGGAAGAGCACACGUCU [U7C U8G G9C U10G U11G C12U C13G] | 1.09
14 | GGGUCGCGCGGUAAUAAUCGCGUGGAUAUGGCACGCAAGUUUCUACCGGGCACCGUAAAUGUCCGACUGGAGCCGUUCGGGCGGCUAUAAACAGACCUCAGGCCCGAAGCGUGGCGGCACCUGCCGCCGGUGGUAAAAAAGAUCGGAAGAGCACACGUCU [U7C U8G G9C U10G U11G C12U C13A] | 1.06
15 | GGGUCGCGCGGUUAUAAUCGCGUGGAUAUGGCACGCAAGUUUCUACCGGGCACCGUAAAUGUCCGACUGGAGCCGUUCGGGCGGCUAUAAACAGACCUCAGGCCCGAAGCGUGGCGGCACCUGCCGCCGGUGGUAAAAAAGAUCGGAAGAGCACACGUCU [U7C U8G G9C U10G U11G C12U C13U] | 1.11
16 | GGGUCGCGCUACCAUAAUCGCGUGGAUAUGGCACGCAAGUUUCUACCGGGCACCGUAAAUGUCCGACUGGAGCCGUUCGGGCGGCUAUAAACAGACCUCAGGCCCGAAGCGUGGCGGCACCUGCCGCCGGUGGUAAAAAAGAUCGGAAGAGCACACGUCU [U7C U8G G9C U11A] | 1.86
17 | GGGUCGCGCGGCAAUAAUCGCGUGGAUAUGGCACGCAAGUUUCUACCGGGCACCGUAAAUGUCCGACUGGAGCCGUUCGGGCGGCUAUAAACAGACCUCAGGCCCGAAGCGUGGCGGCACCUGCCGCCGGUGGUAAAAAAGAUCGGAAGAGCACACGUCU [U7C U8G G9C U10G U11G C13A] | 1.13
18 | GGGUCGCGCGGCGAUAAUCGCGUGGAUAUGGCACGCAAGUUUCUACCGGGCACCGUAAAUGUCCGACUGGAGCCGUUCGGGCGGCUAUAAACAGACCUCAGGCCCGAAGCGUGGCGGCACCUGCCGCCGGUGGUAAAAAAGAUCGGAAGAGCACACGUCU [U7C U8G G9C U10G U11G C13G] | 1.1

Row | Variant | aptazyme ON/OFF ratio
19 | GGGUCGCGCGGCUAUAAUCGCGUGGAUAUGGCACGCAAGUUUCUACCGGGCACCGUAAAUGUCCGACUGGAGCCGUUCGGGCGGCUAUAAACAGACCUCAGGCCCGAAGCGUGGCGGCACCUGCCGCCGGUGGUAAAAAAGAUCGGAAGAGCACACGUCU [U7C U8G G9C U10G U11G C13U] | 1.11
20 | GGGUCGCGCGCCUAUAAUCGCGUGGAUAUGGCACGCAAGUUUCUACCGGGCACCGUAAAUGUCCGACUGGAGCCGUUCGGGCGGCUAUAAACAGACCUCAGGCCCGAAGCGUGGCGGCACCUGCCGCCGGUGGUAAAAAAGAUCGGAAGAGCACACGUCU [U7C U8G G9C U10G U11C C13U] | 1.07
21 | GGGUCGCGCGCCAAUAAUCGCGUGGAUAUGGCACGCAAGUUUCUACCGGGCACCGUAAAUGUCCGACUGGAGCCGUUCGGGCGGCUAUAAACAGACCUCAGGCCCGAAGCGUGGCGGCACCUGCCGCCGGUGGUAAAAAAGAUCGGAAGAGCACACGUCU [U7C U8G G9C U10G U11C C13A] | 1.25
22 | GGGUCGCGCGCCGAUAAUCGCGUGGAUAUGGCACGCAAGUUUCUACCGGGCACCGUAAAUGUCCGACUGGAGCCGUUCGGGCGGCUAUAAACAGACCUCAGGCCCGAAGCGUGGCGGCACCUGCCGCCGGUGGUAAAAAAGAUCGGAAGAGCACACGUCU [U7C U8G G9C U10G U11C C13G] | 1.05
23 | GGGUCGCGCGCUAAUAAUCGCGUGGAUAUGGCACGCAAGUUUCUACCGGGCACCGUAAAUGUCCGACUGGAGCCGUUCGGGCGGCUAUAAACAGACCUCAGGCCCGAAGCGUGGCGGCACCUGCCGCCGGUGGUAAAAAAGAUCGGAAGAGCACACGUCU [U7C U8G G9C U10G U11C C12U C13A] | 1.26
24 | GGGUCGCGCGCUUAUAAUCGCGUGGAUAUGGCACGCAAGUUUCUACCGGGCACCGUAAAUGUCCGACUGGAGCCGUUCGGGCGGCUAUAAACAGACCUCAGGCCCGAAGCGUGGCGGCACCUGCCGCCGGUGGUAAAAAAGAUCGGAAGAGCACACGUCU [U7C U8G G9C U10G U11C C12U C13U] | 1.21
25 | GGGUCGCGCGCUGAUAAUCGCGUGGAUAUGGCACGCAAGUUUCUACCGGGCACCGUAAAUGUCCGACUGGAGCCGUUCGGGCGGCUAUAAACAGACCUCAGGCCCGAAGCGUGGCGGCACCUGCCGCCGGUGGUAAAAAAGAUCGGAAGAGCACACGUCU [U7C U8G G9C U10G U11C C12U C13G] | 1.25
26 | GGGUCGCGCGCUCAUAAUCGCGUGGAUAUGGCACGCAAGUUUCUACCGGGCACCGUAAAUGUCCGACUGGAGCCGUUCGGGCGGCUAUAAACAGACCUCAGGCCCGAAGCGUGGCGGCACCUGCCGCCGGUGGUAAAAAAGAUCGGAAGAGCACACGUCU [U7C U8G G9C U10G U11C C12U] | 1.07
27 | GGGUCGCGCGGGGAUAAUCGCGUGGAUAUGGCACGCAAGUUUCUACCGGGCACCGUAAAUGUCCGACUGGAGCCGUUCGGGCGGCUAUAAACAGACCUCAGGCCCGAAGCGUGGCGGCACCUGCCGCCGGUGGUAAAAAAGAUCGGAAGAGCACACGUCU [U7C U8G G9C U10G U11G C12G C13G] | 1.09
28 | GGGUCGCGCGGGAAUAAUCGCGUGGAUAUGGCACGCAAGUUUCUACCGGGCACCGUAAAUGUCCGACUGGAGCCGUUCGGGCGGCUAUAAACAGACCUCAGGCCCGAAGCGUGGCGGCACCUGCCGCCGGUGGUAAAAAAGAUCGGAAGAGCACACGUCU [U7C U8G G9C U10G U11G C12G C13A] | 1.1
29 | GGGUCGCGCGGGUAUAAUCGCGUGGAUAUGGCACGCAAGUUUCUACCGGGCACCGUAAAUGUCCGACUGGAGCCGUUCGGGCGGCUAUAAACAGACCUCAGGCCCGAAGCGUGGCGGCACCUGCCGCCGGUGGUAAAAAAGAUCGGAAGAGCACACGUCU [U7C U8G G9C U10G U11G C12G C13U] | 1.15
30 | GGGUCGCGCGGGCAUAAUCGCGUGGAUAUGGCACGCAAGUUUCUACCGGGCACCGUAAAUGUCCGACUGGAGCCGUUCGGGCGGCUAUAAACAGACCUCAGGCCCGAAGCGUGGCGGCACCUGCCGCCGGUGGUAAAAAAGAUCGGAAGAGCACACGUCU [U7C U8G G9C U10G U11G C12G] | 1.13
31 | GGGUCGCGCGGUCAUAAUCGCGUGGAUAUGGCACGCAAGUUUCUACCGGGCACCGUAAAUGUCCGACUGGAGCCGUUCGGGCGGCUAUAAACAGACCUCAGGCCCGAAGCGUGGCGGCACCUGCCGCCGGUGGUAAAAAAGAUCGGAAGAGCACACGUCU [U7C U8G G9C U10G U11G C12U] | 1.29
32 | GGGUCGCGCGGACAUAAUCGCGUGGAUAUGGCACGCAAGUUUCUACCGGGCACCGUAAAUGUCCGACUGGAGCCGUUCGGGCGGCUAUAAACAGACCUCAGGCCCGAAGCGUGGCGGCACCUGCCGCCGGUGGUAAAAAAGAUCGGAAGAGCACACGUCU [U7C U8G G9C U10G U11G C12A] | 1.18
33 | GGGUCGCGCUAGUAUAAUCGCGUGGAUAUGGCACGCAAGUUUCUACCGGGCACCGUAAAUGUCCGACUGGAGCCGUUCGGGCGGCUAUAAACAGACCUCAGGCCCGAAGCGUGGCGGCACCUGCCGCCGGUGGUAAAAAAGAUCGGAAGAGCACACGUCU [U7C U8G G9C U11A C12G C13U] | 1.11
34 | GGGUCGCGCUAGGAUAAUCGCGUGGAUAUGGCACGCAAGUUUCUACCGGGCACCGUAAAUGUCCGACUGGAGCCGUUCGGGCGGCUAUAAACAGACCUCAGGCCCGAAGCGUGGCGGCACCUGCCGCCGGUGGUAAAAAAGAUCGGAAGAGCACACGUCU [U7C U8G G9C U11A C12G C13G] | 1.13
35 | GGGUCGCGCUAGAAUAAUCGCGUGGAUAUGGCACGCAAGUUUCUACCGGGCACCGUAAAUGUCCGACUGGAGCCGUUCGGGCGGCUAUAAACAGACCUCAGGCCCGAAGCGUGGCGGCACCUGCCGCCGGUGGUAAAAAAGAUCGGAAGAGCACACGUCU [U7C U8G G9C U11A C12G C13A] | 1.1
36 | GGGUCGCGCGGCCAUAAUCGCGUGGAUAUGGCACGCAAGUUUCUACCGGGCACCGUAAAUGUCCGACUGGAGCCGUUCGGGCGGCUAUAAACAGACCUCAGGCCCGAAGCGUGGCGGCACCUGCCGCCGGUGGUAAAAAAGAUCGGAAGAGCACACGUCU [U7C U8G G9C U10G U11G] | 1.23
